According to patent US20200199241A1 (Chugai, published 2020):
Numbering of substitutions follows the chain as printed. Numbers in names are those of the source.

T1: human FcγRIIa(R) (human, UniProt P12318 36-217)
T1 construct: also called FcgRIIaR; hFcgRIIa(R)
T1 chain: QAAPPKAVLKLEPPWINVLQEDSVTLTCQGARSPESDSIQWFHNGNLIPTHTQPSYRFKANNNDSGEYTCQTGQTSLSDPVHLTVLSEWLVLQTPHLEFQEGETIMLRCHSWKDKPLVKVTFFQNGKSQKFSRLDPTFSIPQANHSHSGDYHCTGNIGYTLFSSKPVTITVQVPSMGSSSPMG

T2: human FcγRIIa(H) (human, UniProt P12318 36-217)
T2 construct: also called FcgRIIaH; hFcgRIIa(H)
T2 sequence: T1 chain with R133H

T3: human FcγRIIb (human, UniProt P31994 43-217, limits assumed)
T3 construct: also called FcgRIIb; hFcgRIIb
T3 sequence: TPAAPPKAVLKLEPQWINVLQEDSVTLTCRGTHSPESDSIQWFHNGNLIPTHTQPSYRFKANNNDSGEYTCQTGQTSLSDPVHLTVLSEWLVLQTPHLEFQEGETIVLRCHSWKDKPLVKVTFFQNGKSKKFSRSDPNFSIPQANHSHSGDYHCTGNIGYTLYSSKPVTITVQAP

B1: GpH7-B3 P329K/GpL16-k0 (antibody, human IgG1)
heavy: not shown
light: DIVMTQSPLSLPVTPGEPASISCQASESLVHSNRNTYLHWYLQKPGQSPQLLIYKVSNRFSGVPDRFSGSGSGTDFTLKISRVEAEDVGVYYCSQNTHVPPTFGQGTKVEIE
notes: B3 variant; copies: 2 + 2
B2: GpH7-B3 N325I/GpL16-k0 (antibody, human IgG1)
heavy: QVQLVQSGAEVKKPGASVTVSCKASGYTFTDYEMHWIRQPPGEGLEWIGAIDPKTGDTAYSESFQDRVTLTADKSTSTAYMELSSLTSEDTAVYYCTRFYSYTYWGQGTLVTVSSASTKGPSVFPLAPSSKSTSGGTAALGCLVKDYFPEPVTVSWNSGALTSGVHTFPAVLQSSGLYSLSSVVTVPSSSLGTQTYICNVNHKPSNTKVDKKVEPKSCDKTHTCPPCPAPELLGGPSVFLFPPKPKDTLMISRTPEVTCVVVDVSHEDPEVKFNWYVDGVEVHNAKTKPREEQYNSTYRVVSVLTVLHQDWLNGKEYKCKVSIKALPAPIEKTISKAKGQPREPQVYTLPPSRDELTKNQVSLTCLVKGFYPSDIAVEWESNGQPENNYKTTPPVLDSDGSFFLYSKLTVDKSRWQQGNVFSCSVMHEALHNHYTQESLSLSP
light: B1 light
notes: B3 variant; copies: 2 + 2
B3: GpH7-B3 A327Q/GpL16-k0 (antibody, human IgG1)
heavy: not shown
light: B1 light
notes: B3 variant; copies: 2 + 2
B4: GpH7-B3 A327V/GpL16-k0 (antibody, human IgG1)
heavy: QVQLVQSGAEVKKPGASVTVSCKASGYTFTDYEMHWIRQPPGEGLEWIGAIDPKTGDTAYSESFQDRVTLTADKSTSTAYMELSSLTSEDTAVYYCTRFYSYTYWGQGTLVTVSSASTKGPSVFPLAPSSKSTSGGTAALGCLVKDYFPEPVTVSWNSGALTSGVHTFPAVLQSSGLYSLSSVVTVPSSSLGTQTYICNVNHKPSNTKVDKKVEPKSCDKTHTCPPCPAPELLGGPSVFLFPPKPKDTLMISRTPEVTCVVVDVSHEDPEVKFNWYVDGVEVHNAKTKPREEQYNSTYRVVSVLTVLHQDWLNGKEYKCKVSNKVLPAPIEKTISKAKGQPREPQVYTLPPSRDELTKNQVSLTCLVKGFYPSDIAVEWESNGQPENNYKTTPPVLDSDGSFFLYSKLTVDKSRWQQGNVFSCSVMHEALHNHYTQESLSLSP
light: B1 light
notes: B3 variant; copies: 2 + 2
B5: GpH7-B3 S298W/GpL16-k0 (antibody, human IgG1)
heavy: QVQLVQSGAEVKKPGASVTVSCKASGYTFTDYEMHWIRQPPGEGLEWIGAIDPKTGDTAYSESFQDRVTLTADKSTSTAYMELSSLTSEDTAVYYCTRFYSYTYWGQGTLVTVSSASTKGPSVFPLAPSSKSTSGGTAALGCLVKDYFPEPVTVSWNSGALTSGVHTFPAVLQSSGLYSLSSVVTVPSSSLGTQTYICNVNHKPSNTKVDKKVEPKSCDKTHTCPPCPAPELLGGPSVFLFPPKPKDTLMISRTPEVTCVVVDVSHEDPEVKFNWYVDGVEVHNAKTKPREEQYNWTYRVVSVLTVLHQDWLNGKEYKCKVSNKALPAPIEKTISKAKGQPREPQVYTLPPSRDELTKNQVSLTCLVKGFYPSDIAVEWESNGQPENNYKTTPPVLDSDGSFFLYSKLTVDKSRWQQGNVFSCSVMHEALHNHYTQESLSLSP
light: B1 light
notes: B3 variant; copies: 2 + 2
B6: GpH7-B3 D270I/GpL16-k0 (antibody, human IgG1)
heavy: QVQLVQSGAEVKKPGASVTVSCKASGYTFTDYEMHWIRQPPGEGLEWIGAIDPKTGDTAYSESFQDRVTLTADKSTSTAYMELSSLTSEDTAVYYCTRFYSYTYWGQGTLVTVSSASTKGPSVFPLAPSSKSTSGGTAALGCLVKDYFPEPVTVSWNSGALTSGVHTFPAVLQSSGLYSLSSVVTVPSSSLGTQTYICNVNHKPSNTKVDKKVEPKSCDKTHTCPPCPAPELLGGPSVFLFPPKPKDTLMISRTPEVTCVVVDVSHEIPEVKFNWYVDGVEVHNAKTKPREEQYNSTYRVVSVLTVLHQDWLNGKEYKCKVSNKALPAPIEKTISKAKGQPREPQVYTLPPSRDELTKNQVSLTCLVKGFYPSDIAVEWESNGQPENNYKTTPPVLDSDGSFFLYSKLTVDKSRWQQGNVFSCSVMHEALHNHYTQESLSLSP
light: B1 light
notes: B3 variant; copies: 2 + 2
B7: GpH7-B3 D270L/GpL16-k0 (antibody, human IgG1)
heavy: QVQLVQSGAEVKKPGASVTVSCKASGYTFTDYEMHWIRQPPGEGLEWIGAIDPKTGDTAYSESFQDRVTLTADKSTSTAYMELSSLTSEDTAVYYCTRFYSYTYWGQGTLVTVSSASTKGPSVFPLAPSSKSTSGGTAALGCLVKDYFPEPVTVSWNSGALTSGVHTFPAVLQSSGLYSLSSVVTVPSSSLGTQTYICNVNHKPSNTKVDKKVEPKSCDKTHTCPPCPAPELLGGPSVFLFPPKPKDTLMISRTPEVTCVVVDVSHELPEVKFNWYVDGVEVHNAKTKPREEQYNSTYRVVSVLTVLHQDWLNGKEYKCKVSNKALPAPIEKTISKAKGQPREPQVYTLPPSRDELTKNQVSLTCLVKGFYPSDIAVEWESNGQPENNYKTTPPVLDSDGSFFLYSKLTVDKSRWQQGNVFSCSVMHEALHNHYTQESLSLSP
light: B1 light
notes: B3 variant; copies: 2 + 2
B8: GpH7-B3 A327S/GpL16-k0 (antibody, human IgG1)
heavy: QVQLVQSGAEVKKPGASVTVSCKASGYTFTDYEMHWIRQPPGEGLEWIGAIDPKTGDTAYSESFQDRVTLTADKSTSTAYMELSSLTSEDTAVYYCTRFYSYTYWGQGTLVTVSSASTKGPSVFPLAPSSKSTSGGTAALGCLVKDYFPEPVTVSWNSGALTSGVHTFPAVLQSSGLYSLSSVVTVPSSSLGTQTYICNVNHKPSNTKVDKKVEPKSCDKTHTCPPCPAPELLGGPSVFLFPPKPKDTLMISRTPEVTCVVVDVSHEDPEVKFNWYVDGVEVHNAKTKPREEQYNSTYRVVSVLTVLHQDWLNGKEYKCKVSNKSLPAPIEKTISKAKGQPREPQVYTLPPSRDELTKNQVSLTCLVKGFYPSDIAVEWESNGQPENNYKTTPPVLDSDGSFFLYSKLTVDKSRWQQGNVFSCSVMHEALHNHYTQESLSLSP
light: B1 light
notes: B3 variant; copies: 2 + 2
B9: GpH7-B3 A327K/GpL16-k0 (antibody, human IgG1)
heavy: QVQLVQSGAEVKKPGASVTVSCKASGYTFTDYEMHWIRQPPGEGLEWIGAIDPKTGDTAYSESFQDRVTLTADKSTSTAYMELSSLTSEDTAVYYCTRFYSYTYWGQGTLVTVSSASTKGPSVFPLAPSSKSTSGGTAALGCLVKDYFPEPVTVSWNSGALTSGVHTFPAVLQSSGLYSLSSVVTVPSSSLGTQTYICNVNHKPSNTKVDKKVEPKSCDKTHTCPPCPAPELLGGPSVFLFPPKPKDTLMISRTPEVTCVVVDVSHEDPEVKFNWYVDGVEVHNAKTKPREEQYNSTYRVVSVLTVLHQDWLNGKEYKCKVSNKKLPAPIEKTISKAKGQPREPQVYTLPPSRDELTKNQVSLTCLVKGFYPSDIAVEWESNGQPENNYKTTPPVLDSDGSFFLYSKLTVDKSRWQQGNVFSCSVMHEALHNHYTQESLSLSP
light: B1 light
notes: B3 variant; copies: 2 + 2
B10: GpH7-B3 A327Y/GpL16-k0 (antibody, human IgG1)
heavy: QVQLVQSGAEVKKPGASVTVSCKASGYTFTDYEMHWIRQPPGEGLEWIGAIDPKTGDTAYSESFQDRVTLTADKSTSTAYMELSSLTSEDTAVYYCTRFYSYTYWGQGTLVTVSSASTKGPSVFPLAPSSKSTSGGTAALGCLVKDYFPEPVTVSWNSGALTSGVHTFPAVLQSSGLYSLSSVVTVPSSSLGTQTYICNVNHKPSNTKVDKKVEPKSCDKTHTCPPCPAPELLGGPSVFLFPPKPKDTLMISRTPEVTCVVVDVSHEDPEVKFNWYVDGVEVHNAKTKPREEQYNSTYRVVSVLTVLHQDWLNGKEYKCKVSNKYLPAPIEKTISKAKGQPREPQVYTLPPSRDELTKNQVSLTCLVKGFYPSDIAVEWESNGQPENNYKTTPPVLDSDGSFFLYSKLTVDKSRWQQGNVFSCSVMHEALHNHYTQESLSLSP
light: B1 light
notes: B3 variant; copies: 2 + 2
B11: GpH7-B3 A327L/GpL16-k0 (antibody, human IgG1)
heavy: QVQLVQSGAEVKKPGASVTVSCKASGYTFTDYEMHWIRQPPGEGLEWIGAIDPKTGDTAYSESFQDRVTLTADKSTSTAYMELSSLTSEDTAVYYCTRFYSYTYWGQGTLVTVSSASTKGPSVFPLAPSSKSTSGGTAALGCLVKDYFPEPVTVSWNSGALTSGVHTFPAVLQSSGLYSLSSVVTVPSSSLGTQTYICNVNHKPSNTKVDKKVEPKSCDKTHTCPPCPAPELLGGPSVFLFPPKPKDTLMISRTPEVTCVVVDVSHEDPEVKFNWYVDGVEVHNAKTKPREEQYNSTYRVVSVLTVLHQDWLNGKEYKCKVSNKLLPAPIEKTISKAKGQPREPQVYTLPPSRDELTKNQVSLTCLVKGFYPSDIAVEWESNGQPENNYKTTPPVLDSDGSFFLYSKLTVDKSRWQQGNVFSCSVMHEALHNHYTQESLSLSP
light: B1 light
notes: B3 variant; copies: 2 + 2
B12: GpH7-B3 A330P/GpL16-k0 (antibody, human IgG1)
heavy: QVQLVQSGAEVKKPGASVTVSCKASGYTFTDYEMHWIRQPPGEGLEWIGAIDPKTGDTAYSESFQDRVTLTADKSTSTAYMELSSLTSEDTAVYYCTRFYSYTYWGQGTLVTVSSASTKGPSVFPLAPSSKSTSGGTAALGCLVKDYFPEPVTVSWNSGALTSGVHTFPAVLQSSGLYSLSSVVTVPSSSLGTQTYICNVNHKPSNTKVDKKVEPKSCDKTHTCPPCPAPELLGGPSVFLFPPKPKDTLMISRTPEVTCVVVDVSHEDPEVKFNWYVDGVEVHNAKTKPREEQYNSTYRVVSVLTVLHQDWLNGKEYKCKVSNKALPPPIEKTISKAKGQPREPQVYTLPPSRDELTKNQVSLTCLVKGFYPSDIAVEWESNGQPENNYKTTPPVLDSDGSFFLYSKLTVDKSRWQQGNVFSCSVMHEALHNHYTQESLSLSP
light: B1 light
notes: B3 variant; copies: 2 + 2
B13: GpH7-B3 A327T/GpL16-k0 (antibody, human IgG1)
heavy: not shown
light: B1 light
notes: B3 variant; copies: 2 + 2

Molecular target: T1, human FcγRIIa(R)
Test: SPR, captured antibody;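 further: antibody captured on a sensor chip, Fcγ receptor flowed over at 25 °C, receptor binding normalized to the captured antibody amount and expressed relative to the reference antibody ×100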
Procedure: (§1) Interaction between each modified antibody and Fcγ receptor prepared in the manner described above was analyzed using the BIACORE™ T100 surface plasmon resonance system (GE Healthcare), BIACORE™ T200 surface plasmon resonance system (GE Healthcare), BIACORE™ A100 surface plasmon resonance system or BIACORE™ 4000 surface plasmon resonance system. HBS-EP+ (GE Healthcare) was used for the running buffer, and measurements were carried out at 25° C. The chips used were chips in which antigen peptides, Protein A (Thermo Scientific), Protein A/G (Thermo Scientific) or Protein L (ACTIGEN® protein (Alltech or BioVision) were immobilized on the Series S Sensor Chip CMS (GE Healthcare) or Series S Sensor Chip CM4 (GE Healthcare) by amine coupling, or chips in which preliminarily biotinylated antigen peptides were allowed to interact and then immobilized on the Series S Sensor Chip SA (certified) (GE Healthcare). The target antibodies were captured on these sensor chips, Fcγ receptor diluted with the running buffer was allowed to interact, followed by measurement of the amount of bound antibody. The amounts bound were compared between antibodies. However, since the amount of Fcγ receptor bound depends on the amount of captured antibody, the values used for comparison were first corrected by dividing the amount of Fcγ receptor bound by the captured amount of each antibody. Through reaction with 10 mM glycine-HCl at pH 1.5, the sensor chips were regenerated by washing off antibody captured on the sensor chips and used repeatedly.
(§2) Binding strength was evaluated according to the following method based on the results of analyzing the interaction with each FcγR. […] That value was then further multiplied by 100, and the resulting value was used as an indicator of relative binding activity to each FcγR.

Row | relative binding activity | Binder
1 | -2 % of GpH7-B3/GpL16-k0 | B1
2 | 76 % of GpH7-B3/GpL16-k0 | B2
3 | 34 % of GpH7-B3/GpL16-k0 | B3
4 | 46 % of GpH7-B3/GpL16-k0 | B4
5 | 19 % of GpH7-B3/GpL16-k0 | B5
6 | 3 % of GpH7-B3/GpL16-k0 | B6
7 | 6 % of GpH7-B3/GpL16-k0 | B7
8 | 59 % of GpH7-B3/GpL16-k0 | B8
9 | -8 % of GpH7-B3/GpL16-k0 | B9
10 | 17 % of GpH7-B3/GpL16-k0 | B10
11 | 31 % of GpH7-B3/GpL16-k0 | B11
12 | 42 % of GpH7-B3/GpL16-k0 | B12
13 | 27 % of GpH7-B3/GpL16-k0 | B13

The binders below were run against T2, human FcγRIIa(H) (assay: SPR, captured antibody;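 further: antibody captured on a sensor chip, Fcγ receptor flowed over at 25 °C, receptor binding normalized to the captured antibody amount and expressed relative to the reference antibody ×100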).
Procedure: as §1, §2

Row | relative binding activity | Binder
14 | -1 % of GpH7-B3/GpL16-k0 | B1
15 | 8 % of GpH7-B3/GpL16-k0 | B2
16 | 47 % of GpH7-B3/GpL16-k0 | B3
17 | 17 % of GpH7-B3/GpL16-k0 | B4
18 | 17 % of GpH7-B3/GpL16-k0 | B5
19 | 43 % of GpH7-B3/GpL16-k0 | B6
20 | 61 % of GpH7-B3/GpL16-k0 | B7
21 | 51 % of GpH7-B3/GpL16-k0 | B8
22 | 0 % of GpH7-B3/GpL16-k0 | B9
23 | 26 % of GpH7-B3/GpL16-k0 | B10
24 | 16 % of GpH7-B3/GpL16-k0 | B11
25 | 25 % of GpH7-B3/GpL16-k0 | B12
26 | 12 % of GpH7-B3/GpL16-k0 | B13

Each binder was assayed against T4, human FcγRIa (human, UniProt P12314 16-292, limits assumed) (assay: SPR, captured antibody;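 further: antibody captured on a sensor chip, Fcγ receptor flowed over at 25 °C, receptor binding normalized to the captured antibody amount and expressed relative to the reference antibody ×100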).
T4 construct: also called FcgRIa; hFcgRIa
T4 sequence (P12314 16-292 limits assumed): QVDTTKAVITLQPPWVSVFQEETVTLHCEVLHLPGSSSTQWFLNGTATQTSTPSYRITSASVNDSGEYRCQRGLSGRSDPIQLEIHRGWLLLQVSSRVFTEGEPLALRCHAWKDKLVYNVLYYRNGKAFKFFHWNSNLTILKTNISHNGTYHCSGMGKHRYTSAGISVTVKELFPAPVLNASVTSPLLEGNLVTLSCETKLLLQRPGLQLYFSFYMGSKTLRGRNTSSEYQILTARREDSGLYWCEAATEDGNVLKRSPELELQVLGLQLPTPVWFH
Procedure: as §1, §2

Row | relative binding activity | Binder
27 | 6 % of GpH7-B3/GpL16-k0 | B1
28 | 94 % of GpH7-B3/GpL16-k0 | B2
29 | 94 % of GpH7-B3/GpL16-k0 | B3
30 | 97 % of GpH7-B3/GpL16-k0 | B4
31 | 69 % of GpH7-B3/GpL16-k0 | B5
32 | 88 % of GpH7-B3/GpL16-k0 | B6
33 | 90 % of GpH7-B3/GpL16-k0 | B7
34 | 88 % of GpH7-B3/GpL16-k0 | B8
35 | 57 % of GpH7-B3/GpL16-k0 | B9
36 | 97 % of GpH7-B3/GpL16-k0 | B10
37 | 98 % of GpH7-B3/GpL16-k0 | B11
38 | 87 % of GpH7-B3/GpL16-k0 | B12
39 | 64 % of GpH7-B3/GpL16-k0 | B13

Each binder was assayed against T3, human FcγRIIb (assay: SPR, captured antibody;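 further: antibody captured on a sensor chip, Fcγ receptor flowed over at 25 °C, receptor binding normalized to the captured antibody amount and expressed relative to the reference antibody ×100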).
Procedure: as §1, §2

Row | relative binding activity | Binder
40 | -2 % of GpH7-B3/GpL16-k0 | B1
41 | 29 % of GpH7-B3/GpL16-k0 | B3
42 | 43 % of GpH7-B3/GpL16-k0 | B4
43 | 1 % of GpH7-B3/GpL16-k0 | B6
44 | 3 % of GpH7-B3/GpL16-k0 | B7
45 | 62 % of GpH7-B3/GpL16-k0 | B8
46 | 0 % of GpH7-B3/GpL16-k0 | B9
47 | 18 % of GpH7-B3/GpL16-k0 | B10
48 | 34 % of GpH7-B3/GpL16-k0 | B11
49 | 39 % of GpH7-B3/GpL16-k0 | B12
50 | 37 % of GpH7-B3/GpL16-k0 | B13
